# According to the supplement of paper PMC9112550, “Optimization of the antimicrobial peptide Bac7 by deep mutational scanning” (BMC Biology, 2022):
# System: Escherichia coli TOP10
# Test: shrunken log2 fold change of peptide-encoding DNA abundance (4.5 h post-induction vs induction); higher = less antimicrobial activity (less host growth inhibition)
# Conditions: time post-induction: 4.5 h; library: site-saturation at positions 5, 18, 19, 20
# 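Further: peptides expressed intracellularly from a pBAD plasmid library in pooled LB shake-flask culture, induced with 0.3% L-arabinose, DNA abundance read by NGS, three biological replicates, DESeq2 with apeglm shrinkage.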
row,Sequence,shrunken log2 fold change
1,RRIRFRPPRLPRPRPRPGFFPRP,0.023
2,RRIRNRPPRLPRPRPRPCAEPRP,-0.169
3,RRIRTRPPRLPRPRPRPWDKPRP,-0.0249
4,RRIRDRPPRLPRPRPRPVEAPRP,0.441
5,RRIRGRPPRLPRPRPRPQKEPRP,0.0631
6,RRIRLRPPRLPRPRPRPSLCPRP,-0.462
7,RRIRQRPPRLPRPRPRPDCFPRP,0.291
8,RRIRKRPPRLPRPRPRPEELPRP,2.77
9,RRIRERPPRLPRPRPRPVIKPRP,-0.201
10,RRIRPRPPRLPRPRPRPPWHPRP,0.196
11,RRIRWRPPRLPRPRPRPTRRPRP,0.377
12,RRIRVRPPRLPRPRPRPQGAPRP,0.168
13,RRIRLRPPRLPRPRPRPGLDPRP,-0.0233
14,RRIRCRPPRLPRPRPRPFAKPRP,-0.108
15,RRIRPRPPRLPRPRPRPCCGPRP,-0.0386
16,RRIRDRPPRLPRPRPRPLVLPRP,0.176
17,RRIRCRPPRLPRPRPRPKMIPRP,-0.727
18,RRIRTRPPRLPRPRPRPGVEPRP,-0.0469
19,RRIRYRPPRLPRPRPRPYIPPRP,-0.457
20,RRIRKRPPRLPRPRPRPKKCPRP,0.405
21,RRIRCRPPRLPRPRPRPTEFPRP,-0.0561
22,RRIRPRPPRLPRPRPRPALQPRP,0.0721
23,RRIRKRPPRLPRPRPRPGMYPRP,0.102
24,RRIRFRPPRLPRPRPRPLNRPRP,-0.196
25,RRIRGRPPRLPRPRPRPGHCPRP,0.4

row,Sequence,shrunken log2 fold change
1,RRIRIRPPRLPRPRPRPWNDPRP,-0.216
2,RRIRPRPPRLPRPRPRPHCQPRP,-0.0117
3,RRIRVRPPRLPRPRPRPWCWPRP,-0.0537
4,RRIRARPPRLPRPRPRPTVPPRP,0.56
5,RRIRHRPPRLPRPRPRPVAIPRP,2.06
6,RRIRRRPPRLPRPRPRPPPRPRP,1.32
7,RRIRRRPPRLPRPRPRPMYMPRP,-0.212
8,RRIRMRPPRLPRPRPRPLQCPRP,-0.0663
9,RRIRGRPPRLPRPRPRPFGCPRP,-0.0567
10,RRIRVRPPRLPRPRPRPTECPRP,0.00778
11,RRIRMRPPRLPRPRPRPSNHPRP,0.00558
12,RRIRRRPPRLPRPRPRPRQPPRP,0.997
13,RRIRPRPPRLPRPRPRPCAQPRP,-0.119
14,RRIRQRPPRLPRPRPRPSIHPRP,-0.451
15,RRIRSRPPRLPRPRPRPFYSPRP,-0.131
16,RRIRLRPPRLPRPRPRPCVQPRP,-0.0514
17,RRIRNRPPRLPRPRPRPISLPRP,-0.0292
18,RRIRVRPPRLPRPRPRPNTPPRP,-0.0576
19,RRIRLRPPRLPRPRPRPREAPRP,0.641
20,RRIRWRPPRLPRPRPRPKSYPRP,0.0188
21,RRIRFRPPRLPRPRPRPNIMPRP,-0.658
22,RRIRKRPPRLPRPRPRPCKNPRP,-0.0355
23,RRIRFRPPRLPRPRPRPDLLPRP,0.118
24,RRIRCRPPRLPRPRPRPKGYPRP,-0.0908
25,RRIRYRPPRLPRPRPRPWKNPRP,-0.458

row,Sequence,shrunken log2 fold change
1,RRIRERPPRLPRPRPRPNILPRP,-0.991
2,RRIRNRPPRLPRPRPRPDFEPRP,-0.0968
3,RRIRFRPPRLPRPRPRPLTQPRP,-0.155
4,RRIRNRPPRLPRPRPRPIDFPRP,-0.413
5,RRIRLRPPRLPRPRPRPVKFPRP,-0.316
6,RRIRNRPPRLPRPRPRPMGYPRP,-0.00459
7,RRIRLRPPRLPRPRPRPVWAPRP,0.424
8,RRIRQRPPRLPRPRPRPNFKPRP,-0.235
9,RRIRCRPPRLPRPRPRPFVPPRP,-0.139
10,RRIRYRPPRLPRPRPRPVRNPRP,-0.161
11,RRIRCRPPRLPRPRPRPHNYPRP,-0.831
12,RRIRGRPPRLPRPRPRPDSFPRP,0.00128
13,RRIRKRPPRLPRPRPRPCLSPRP,-0.161
14,RRIRVRPPRLPRPRPRPVDCPRP,0.014
15,RRIRGRPPRLPRPRPRPFADPRP,2.03
16,RRIRSRPPRLPRPRPRPCIQPRP,-0.175
17,RRIRERPPRLPRPRPRPRMCPRP,-0.0502
18,RRIRKRPPRLPRPRPRPVMDPRP,-0.0489
19,RRIRERPPRLPRPRPRPCTEPRP,-0.196
20,RRIRIRPPRLPRPRPRPPTKPRP,0.126
21,RRIRKRPPRLPRPRPRPSSPPRP,-0.563
22,RRIRSRPPRLPRPRPRPGMSPRP,-0.0403
23,RRIRNRPPRLPRPRPRPHTWPRP,-0.296
24,RRIRPRPPRLPRPRPRPEGKPRP,-0.124
25,RRIRHRPPRLPRPRPRPCVTPRP,-0.609

row,Sequence,shrunken log2 fold change
1,RRIRWRPPRLPRPRPRPGRLPRP,-0.0636
2,RRIRIRPPRLPRPRPRPQEDPRP,-0.0165
3,RRIRMRPPRLPRPRPRPQHSPRP,-0.183
4,RRIRRRPPRLPRPRPRPIMGPRP,-0.267
5,RRIRCRPPRLPRPRPRPSPGPRP,0.0883
6,RRIRDRPPRLPRPRPRPVFKPRP,-0.0946
7,RRIRQRPPRLPRPRPRPEWQPRP,0.00709
8,RRIRCRPPRLPRPRPRPFYEPRP,-0.741
9,RRIRCRPPRLPRPRPRPKEIPRP,0.0368
10,RRIRWRPPRLPRPRPRPGWPPRP,0.644
11,RRIRIRPPRLPRPRPRPWHPPRP,-0.383
12,RRIRARPPRLPRPRPRPDFYPRP,0.0576
13,RRIRYRPPRLPRPRPRPAQIPRP,-0.347
14,RRIRWRPPRLPRPRPRPKYTPRP,-0.315
15,RRIRWRPPRLPRPRPRPYINPRP,-0.536
16,RRIRSRPPRLPRPRPRPYCPPRP,-0.802
17,RRIRVRPPRLPRPRPRPTPDPRP,0.182
18,RRIRWRPPRLPRPRPRPAKNPRP,0.263
19,RRIRLRPPRLPRPRPRPMEWPRP,-0.0102
20,RRIRRRPPRLPRPRPRPRQFPRP,0.225
21,RRIRERPPRLPRPRPRPDKRPRP,-0.023
22,RRIRFRPPRLPRPRPRPLCDPRP,-0.196
23,RRIRVRPPRLPRPRPRPNTCPRP,-0.101
24,RRIRQRPPRLPRPRPRPDSNPRP,-0.382
25,RRIRVRPPRLPRPRPRPITWPRP,-0.182

row,Sequence,shrunken log2 fold change
1,RRIRNRPPRLPRPRPRPVNNPRP,-0.647
2,RRIRIRPPRLPRPRPRPDFFPRP,-0.415
3,RRIRCRPPRLPRPRPRPCFMPRP,-0.416
4,RRIRHRPPRLPRPRPRPNSPPRP,-0.337
5,RRIRVRPPRLPRPRPRPTLPPRP,0.335
6,RRIRRRPPRLPRPRPRPIEHPRP,-0.00775
7,RRIRRRPPRLPRPRPRPGDAPRP,0.782
8,RRIRKRPPRLPRPRPRPSQWPRP,0.144
9,RRIRKRPPRLPRPRPRPWMKPRP,-0.0454
10,RRIRFRPPRLPRPRPRPFYGPRP,-0.146
11,RRIRARPPRLPRPRPRPFALPRP,0.185
12,RRIRIRPPRLPRPRPRPATDPRP,-0.161
13,RRIRMRPPRLPRPRPRPSVAPRP,0.44
14,RRIRLRPPRLPRPRPRPADAPRP,0.599
15,RRIRKRPPRLPRPRPRPTTVPRP,0.331
16,RRIRYRPPRLPRPRPRPHMNPRP,-1.2
17,RRIRYRPPRLPRPRPRPTASPRP,-0.389
18,RRIRSRPPRLPRPRPRPDFFPRP,-0.0547
19,RRIRWRPPRLPRPRPRPRLCPRP,0.512
20,RRIRQRPPRLPRPRPRPATFPRP,0.157
21,RRIRDRPPRLPRPRPRPNLPPRP,-0.0303
22,RRIRHRPPRLPRPRPRPCIIPRP,-0.0445
23,RRIRPRPPRLPRPRPRPVADPRP,0.295
24,RRIRIRPPRLPRPRPRPCFRPRP,-0.233
25,RRIRHRPPRLPRPRPRPVGQPRP,0.0139

row,Sequence,shrunken log2 fold change
1,RRIRDRPPRLPRPRPRPSKSPRP,-0.223
2,RRIRHRPPRLPRPRPRPRLHPRP,0.0986
3,RRIRVRPPRLPRPRPRPKTLPRP,-0.0985
4,RRIRNRPPRLPRPRPRPCMSPRP,-0.108
5,RRIRLRPPRLPRPRPRPSDCPRP,-0.336
6,RRIRERPPRLPRPRPRPHIAPRP,-0.099
7,RRIRTRPPRLPRPRPRPGWDPRP,0.129
8,RRIRQRPPRLPRPRPRPDMMPRP,0.142
9,RRIRCRPPRLPRPRPRPGTNPRP,-0.15
10,RRIRQRPPRLPRPRPRPALGPRP,0.563
11,RRIRLRPPRLPRPRPRPCLYPRP,-0.247
12,RRIRMRPPRLPRPRPRPRCSPRP,0.393
13,RRIRIRPPRLPRPRPRPHSPPRP,-0.161
14,RRIRIRPPRLPRPRPRPSDTPRP,0.00546
15,RRIRMRPPRLPRPRPRPPAGPRP,1.5
16,RRIRCRPPRLPRPRPRPAWDPRP,0.235
17,RRIRWRPPRLPRPRPRPERMPRP,0.0689
18,RRIRERPPRLPRPRPRPSDSPRP,-0.186
19,RRIRYRPPRLPRPRPRPCGKPRP,-0.0542
20,RRIRDRPPRLPRPRPRPVSWPRP,1.13
21,RRIRWRPPRLPRPRPRPKRAPRP,0.797
22,RRIRPRPPRLPRPRPRPTIWPRP,0.349
23,RRIRGRPPRLPRPRPRPPVSPRP,0.604
24,RRIRCRPPRLPRPRPRPECHPRP,0.0568
25,RRIRLRPPRLPRPRPRPEYNPRP,-0.15
